In US20130143798A1 (Novo Nordisk, published 2013):
Numbered stars: 1 amine (or outer) side, 2 acyl side, 3 side chain; on linkers, the order of the positions; unused ones are H or OH. Square brackets hold non-standard residues; d marks the D form. Side chains are listed from the residue outwards. Ends that are not written are not given here. * marks the point of attachment. C18 diacid = O=C(O)CCCCCCCCCCCCCCCCC(=O)*; γGlu = O=C(O)[C@H](CCC(=O)[*:2])N[*:1]; AEEA = NCCOCCOCC(=O)O; Aib = CC(C)(N)C(=O)O

B1: N^ε29-([2-[2-[2-[[(4S)-5-hydroxy-4-[(18-hydroxy-18-oxooctadecanoyl)amino]5-oxopentanoyl]amino]ethoxy]ethoxy]acetyl]amino]ethoxy]ethoxy]acetyl]])[Leu^27,Lys^29]G … (peptide)
peptide: HSQGTFTSDYSKYLDSRRAQDFVQWLLNK([AEEA-AEEA-γGlu-C18 diacid])
modifications: not fully specified; printed as N^ε29-([2-[2-[2-[[(4S)-5-hydroxy-4-[(18-hydroxy-18-oxooctadecanoyl)amino]5-oxopentanoyl]amino]ethoxy]ethoxy]acetyl]amino]ethoxy]ethoxy]acetyl]])[Leu^27,Lys^29]Glucagon
B2: N^ε24-([2-[2-[2-[[2-[2-[2-[[(4S)-5-hydroxy-4-[(18-hydroxy-18-oxooctadecanoyl)amino]-5-oxopentanoyl]amino]ethoxy]ethoxy]acetyl]amino]ethoxy]ethoxy]acetyl]) … (peptide)
peptide: H[dS]QGTFTSDYSKYLAEQRARDFVK([AEEA-AEEA-γGlu-C18 diacid])WLLNT-NH2
modifications: N-terminus assumed
SMILES: CC(C)C[C@H](NC(=O)[C@H](Cc1ccc(O)cc1)NC(=O)[C@H](CCCCN)NC(=O)[C@H](CO)NC(=O)[C@H](Cc1ccc(O)cc1)NC(=O)[C@H](CC(=O)O)NC(=O)[C@H](CO)NC(=O)[C@@H](NC(=O)[C@H](Cc1ccccc1)NC(=O)[C@@H](NC(=O)CNC(=O)[C@H](CCC(N)=O)NC(=O)[C@@H](CO)NC(=O)[C@@H](N)Cc1c[nH]cn1)[C@@H](C)O)[C@@H](C)O)C(=O)N[C@@H](C)C(=O)N[C@@H](CCC(=O)O)C(=O)N[C@@H](CCC(N)=O)C(=O)N[C@@H](CCCNC(=N)N)C(=O)N[C@@H](C)C(=O)N[C@@H](CCCNC(=N)N)C(=O)N[C@@H](CC(=O)O)C(=O)N[C@@H](Cc1ccccc1)C(=O)N[C@H](C(=O)N[C@@H](CCCCNC(=O)COCCOCCNC(=O)COCCOCCNC(=O)CC[C@H](NC(=O)CCCCCCCCCCCCCCCCC(=O)O)C(=O)O)C(=O)N[C@@H](Cc1c[nH]c2ccccc12)C(=O)N[C@@H](CC(C)C)C(=O)N[C@@H](CC(C)C)C(=O)N[C@@H](CC(N)=O)C(=O)N[C@H](C(N)=O)[C@@H](C)O)C(C)C
B3: N^ε24-([2-[2-[2-[[2-[2-[2-[[(4S)-5-hydroxy-4-[(18-hydroxy-18-oxooctadecanoyl)amino]-5-oxopentanoyl]amino]ethoxy]ethoxy]acetyl]amino]ethoxy]ethoxy]acetyl]) … (peptide)
peptide: H[Aib]QGTFTSDYSKYLDERRAQDFVK([AEEA-AEEA-γGlu-C18 diacid])WLLNT-NH2
modifications: N-terminus assumed
SMILES: CC(C)C[C@H](NC(=O)[C@H](Cc1ccc(O)cc1)NC(=O)[C@H](CCCCN)NC(=O)[C@H](CO)NC(=O)[C@H](Cc1ccc(O)cc1)NC(=O)[C@H](CC(=O)O)NC(=O)[C@H](CO)NC(=O)[C@@H](NC(=O)[C@H](Cc1ccccc1)NC(=O)[C@@H](NC(=O)CNC(=O)[C@H](CCC(N)=O)NC(=O)C(C)(C)NC(=O)[C@@H](N)Cc1c[nH]cn1)[C@@H](C)O)[C@@H](C)O)C(=O)N[C@@H](CC(=O)O)C(=O)N[C@@H](CCC(=O)O)C(=O)N[C@@H](CCCNC(=N)N)C(=O)N[C@@H](CCCNC(=N)N)C(=O)N[C@@H](C)C(=O)N[C@@H](CCC(N)=O)C(=O)N[C@@H](CC(=O)O)C(=O)N[C@@H](Cc1ccccc1)C(=O)N[C@H](C(=O)N[C@@H](CCCCNC(=O)COCCOCCNC(=O)COCCOCCNC(=O)CC[C@H](NC(=O)CCCCCCCCCCCCCCCCC(=O)O)C(=O)O)C(=O)N[C@@H](Cc1c[nH]c2ccccc12)C(=O)N[C@@H](CC(C)C)C(=O)N[C@@H](CC(C)C)C(=O)N[C@@H](CC(N)=O)C(=O)N[C@H](C(N)=O)[C@@H](C)O)C(C)C
B4: N^α([Glu^16,Gln^17,Arg^20]Glucagonyl) … (peptide)
peptide: HSQGTFTSDYSKYLDEQRARDFVQWLMNTK([AEEA-AEEA-γGlu-C18 diacid])-NH2
modifications: N-terminus assumed
SMILES: CSCC[C@H](NC(=O)[C@H](CC(C)C)NC(=O)[C@H](Cc1c[nH]c2ccccc12)NC(=O)[C@H](CCC(N)=O)NC(=O)[C@@H](NC(=O)[C@H](Cc1ccccc1)NC(=O)[C@H](CC(=O)O)NC(=O)[C@H](CCCNC(=N)N)NC(=O)[C@H](C)NC(=O)[C@H](CCCNC(=N)N)NC(=O)[C@H](CCC(N)=O)NC(=O)[C@H](CCC(=O)O)NC(=O)[C@H](CC(=O)O)NC(=O)[C@H](CC(C)C)NC(=O)[C@H](Cc1ccc(O)cc1)NC(=O)[C@H](CCCCN)NC(=O)[C@H](CO)NC(=O)[C@H](Cc1ccc(O)cc1)NC(=O)[C@H](CC(=O)O)NC(=O)[C@H](CO)NC(=O)[C@@H](NC(=O)[C@H](Cc1ccccc1)NC(=O)[C@@H](NC(=O)CNC(=O)[C@H](CCC(N)=O)NC(=O)[C@H](CO)NC(=O)[C@@H](N)Cc1c[nH]cn1)[C@@H](C)O)[C@@H](C)O)C(C)C)C(=O)N[C@@H](CC(N)=O)C(=O)N[C@H](C(=O)N[C@@H](CCCCNC(=O)COCCOCCNC(=O)COCCOCCNC(=O)CC[C@H](NC(=O)CCCCCCCCCCCCCCCCC(=O)O)C(=O)O)C(N)=O)[C@@H](C)O
B5: N^ε24-([2-[2-[2-[[(4S)-5-hydroxy-4-[(18-hydroxy-18-oxooctadecanoyl)amino]5-oxopentanoyl]amino]ethoxy]ethoxy]acetyl]amino]ethoxy]ethoxy]acetyl]])[Lys^24,Leu^27,S … (peptide)
peptide: HSQGTFTSDYSKYLDSRRAQDFVK([AEEA-AEEA-γGlu-C18 diacid])WLLST
B6: N^ε16-([2-[2-[2-[[(4S)-5-hydroxy-4-[(18-hydroxy-18-oxooctadecanoyl)amino]5-oxopentanoyl]amino]ethoxy]ethoxy]acetyl]amino]ethoxy]ethoxy]acetyl]]) … (peptide)
peptide: HSQGTFTSDYSKYLDK([AEEA-AEEA-γGlu-C18 diacid])RRAQDFVQWLLNT
B7: N^ε24-([2-[2-[2-[[(4S)-5-hydroxy-4-[(18-hydroxy-18-oxooctadecanoyl)amino]5-oxopentanoyl]amino]ethoxy]ethoxy]acetyl]amino]ethoxy]ethoxy]acetyl]]) … (peptide)
peptide: HSQGTFTSDYSRYLDSRRAQDFVK([AEEA-AEEA-γGlu-C18 diacid])WLLNT
B8: N^ε17-([2-[2-[2-[[(4S)-5-hydroxy-4-[(18-hydroxy-18-oxooctadecanoyl)amino]5-oxopentanoyl]amino]ethoxy]ethoxy]acetyl]amino]ethoxy]ethoxy]acetyl]]) … (peptide)
peptide: HSQGTFTSDYSKYLDSK([AEEA-AEEA-γGlu-C18 diacid])RAQDFVQWLLNT
B9: N^ε24-([2-[2-[2-[[2-[2-[2-[[(4S)-5-hydroxy-4-[(18-hydroxy-18-oxooctadecanoyl)amino]-5-oxopentanoyl]amino]ethoxy]ethoxy]acetyl]amino]ethoxy]ethoxy]acetyl])[Glu^2 … (peptide)
peptide: HSQGTFTSDYSKYLDSRRAQEFVK([AEEA-AEEA-γGlu-C18 diacid])RLLNT-NH2
modifications: N-terminus assumed
SMILES: CC(C)C[C@H](NC(=O)[C@H](Cc1ccc(O)cc1)NC(=O)[C@H](CCCCN)NC(=O)[C@H](CO)NC(=O)[C@H](Cc1ccc(O)cc1)NC(=O)[C@H](CC(=O)O)NC(=O)[C@H](CO)NC(=O)[C@@H](NC(=O)[C@H](Cc1ccccc1)NC(=O)[C@@H](NC(=O)CNC(=O)[C@H](CCC(N)=O)NC(=O)[C@H](CO)NC(=O)[C@@H](N)Cc1c[nH]cn1)[C@@H](C)O)[C@@H](C)O)C(=O)N[C@@H](CC(=O)O)C(=O)N[C@@H](CO)C(=O)N[C@@H](CCCNC(=N)N)C(=O)N[C@@H](CCCNC(=N)N)C(=O)N[C@@H](C)C(=O)N[C@@H](CCC(N)=O)C(=O)N[C@@H](CCC(=O)O)C(=O)N[C@@H](Cc1ccccc1)C(=O)N[C@H](C(=O)N[C@@H](CCCCNC(=O)COCCOCCNC(=O)COCCOCCNC(=O)CC[C@H](NC(=O)CCCCCCCCCCCCCCCCC(=O)O)C(=O)O)C(=O)N[C@@H](CCCNC(=N)N)C(=O)N[C@@H](CC(C)C)C(=O)N[C@@H](CC(C)C)C(=O)N[C@@H](CC(N)=O)C(=O)N[C@H](C(N)=O)[C@@H](C)O)C(C)C
B10: N^ε24-([2-[2-[2-[[(4S)-5-hydroxy-4-[(18-hydroxy-18-oxooctadecanoyl)amino]5-oxopentanoyl]amino]ethoxy]ethoxy]acetyl]amino]ethoxy]ethoxy]acetyl]])[D-Ser^2,Glu^16, … (peptide)
peptide: H[dS]QGTFTSDYSKYLDERRAQDFVK([AEEA-AEEA-γGlu-C18 diacid])WLLNT
B11: N^α-(N^ε24-[2-[2-[2-[[(4S)-5-hydroxy-4-[(18-hydroxy-18-oxo-octadecanoyl)amino]-5-oxo-pentanoyl]amino]ethoxy]ethoxy]acetyl][D-Ser^2, Lys^20]Glucagonyl) Lysinyl … (peptide)
peptide: H[dS]QGTFTSDYSKYLDSRRAKDFVQWLMNTK-NH2
modifications: not fully specified
B12: N^α([Glu^16,Gln^17,Ala^18,Arg^20]Glucagonyl) … (peptide)
peptide: HSQGTFTSDYSKYLDEQAARDFVQWLMNTK([AEEA-AEEA-γGlu-C18 diacid])-NH2
modifications: N-terminus assumed
SMILES: CSCC[C@H](NC(=O)[C@H](CC(C)C)NC(=O)[C@H](Cc1c[nH]c2ccccc12)NC(=O)[C@H](CCC(N)=O)NC(=O)[C@@H](NC(=O)[C@H](Cc1ccccc1)NC(=O)[C@H](CC(=O)O)NC(=O)[C@H](CCCNC(=N)N)NC(=O)[C@H](C)NC(=O)[C@H](C)NC(=O)[C@H](CCC(N)=O)NC(=O)[C@H](CCC(=O)O)NC(=O)[C@H](CC(=O)O)NC(=O)[C@H](CC(C)C)NC(=O)[C@H](Cc1ccc(O)cc1)NC(=O)[C@H](CCCCN)NC(=O)[C@H](CO)NC(=O)[C@H](Cc1ccc(O)cc1)NC(=O)[C@H](CC(=O)O)NC(=O)[C@H](CO)NC(=O)[C@@H](NC(=O)[C@H](Cc1ccccc1)NC(=O)[C@@H](NC(=O)CNC(=O)[C@H](CCC(N)=O)NC(=O)[C@H](CO)NC(=O)[C@@H](N)Cc1c[nH]cn1)[C@@H](C)O)[C@@H](C)O)C(C)C)C(=O)N[C@@H](CC(N)=O)C(=O)N[C@H](C(=O)N[C@@H](CCCCNC(=O)COCCOCCNC(=O)COCCOCCNC(=O)CC[C@H](NC(=O)CCCCCCCCCCCCCCCCC(=O)O)C(=O)O)C(N)=O)[C@@H](C)O
B13: N^α([Leu^27]Glucagonyl) … (peptide)
peptide: HSQGTFTSDYSKYLDSRRAQDFVQWLLNTK
modifications: C-terminal Lys (position 30): N-epsilon acylated with the substituent printed in the name
B14: N^ε24-([2-[2-[2-[[(4S)-5-hydroxy-4-[(18-hydroxy-18-oxooctadecanoyl)amino]5-oxopentanoyl]amino]ethoxy]ethoxy]acetyl]amino]ethoxy]ethoxy]acetyl]])[Lys^24,Leu^27,T … (peptide)
peptide: HSQGTFTSDYSKYLDSRRAQDFVK([AEEA-AEEA-γGlu-C18 diacid])WLLTT
B15: N^ε18-([2-[2-[2-[[(4S)-5-hydroxy-4-[(18-hydroxy-18-oxooctadecanoyl)amino]5-oxopentanoyl]amino]ethoxy]ethoxy]acetyl]amino]ethoxy]ethoxy]acetyl]])[Lys^18,Leu^27]G … (peptide)
peptide: HSQGTFTSDYSKYLDSRK([AEEA-AEEA-γGlu-C18 diacid])AQDFVQWLLNT
B16: N^ε24-([2-[2-[2-[[(4S)-5-hydroxy-4-[(18-hydroxy-18-oxooctadecanoyl)amino]5-oxopentanoyl]amino]ethoxy]ethoxy]acetyl]amino]ethoxy]ethoxy]acetyl]]) … (peptide)
peptide: HSQGTFTSDYSKYLDTRRAQDFVK([AEEA-AEEA-γGlu-C18 diacid])WLLST
B17: N^ε24([2-[2-[2-[[(4S)-5-hydroxy-4-[(18-hydroxy-18-oxooctadecanoyl)amino]5-oxopentanoyl]amino]ethoxy]ethoxy]acetyl]amino]ethoxy]ethoxy]acetyl]])[Glu^21,Lys^24,Le … (peptide)
peptide: HSQGTFTSDYSKYLDSRRAQEFVK([AEEA-AEEA-γGlu-C18 diacid])WLLNT

Molecular target: glucagon receptor (UniProt P47871 26-477, limits assumed)
Sequence (P47871 26-477 limits assumed): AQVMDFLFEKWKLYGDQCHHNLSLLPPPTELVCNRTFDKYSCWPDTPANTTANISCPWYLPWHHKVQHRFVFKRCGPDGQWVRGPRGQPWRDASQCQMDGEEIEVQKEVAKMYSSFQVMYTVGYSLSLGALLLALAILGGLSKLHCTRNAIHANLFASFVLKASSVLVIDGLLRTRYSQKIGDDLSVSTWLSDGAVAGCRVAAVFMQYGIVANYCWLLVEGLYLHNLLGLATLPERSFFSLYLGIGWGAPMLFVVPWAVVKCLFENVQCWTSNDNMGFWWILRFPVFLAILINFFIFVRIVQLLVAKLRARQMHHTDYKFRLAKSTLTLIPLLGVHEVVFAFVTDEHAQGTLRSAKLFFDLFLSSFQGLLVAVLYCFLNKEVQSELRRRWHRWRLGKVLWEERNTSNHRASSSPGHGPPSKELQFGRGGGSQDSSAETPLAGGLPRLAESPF
Test: cell-based or functional assay

Assay (I) Glucagon [EC50] [nM] | Binder
0.046 | B1
0.137 | B2
0.135 | B3
0.192 | B4
0.02 | B5
0.003 | B6
0.109 | B7
0.094 | B8
0.043 | B9
0.149 | B10
0.54 | B11
0.406 | B12
0.019 | B13
0.024 | B14
0.206 | B15
0.016 | B16
0.021 | B17
